We go through three molecules from publication PMC10722498, “Fixing Flavins: Hijacking a Flavin Transferase for Equipping Flavoproteins with a Covalent Flavin Cofactor” (Journal of the American Chemical Society, 2023).

Data set [1] has as its target T1, miniSOG (Arabidopsis thaliana, UniProt P93025, I387M/N390S/S394T/S409G/C426G/A437D/T438I/Q440S/K441G/I442A/R443T/F470L).
T1 construct: gene PHOT2; engineered LOV domain of phototropin 2, 106 residues, several mutations abolishing flavin-cysteine adduct; recombinant, coexpressed with ApbE
The experiment in a line: X-ray crystal structure […] Å; MS. It counts as binding. To be noted: miniSOG-F2; covalent; phosphoester to OG1 of Thr57; attached in vivo by ApbE.

For data set [2], the target named is T2, miniSOG (Arabidopsis thaliana, UniProt P93025, I387M/N390S/S394T/S409G/C426G/F470L, form not given).
T2 construct: gene PHOT2; engineered LOV domain of phototropin 2, 106 residues, several mutations abolishing flavin-cysteine adduct; recombinant, coexpressed with ApbE
The experiment in a line: SDS-PAGE and MS. It counts as binding. To be noted: covalent; attached in vivo by ApbE.

The target of data set [3] is T3, PpSB1-LOV (Pseudomonas putida, UniProt Q88E39).
T3 construct: gene PP_4629; dimer
T3 sequence (Q88E39 1-142): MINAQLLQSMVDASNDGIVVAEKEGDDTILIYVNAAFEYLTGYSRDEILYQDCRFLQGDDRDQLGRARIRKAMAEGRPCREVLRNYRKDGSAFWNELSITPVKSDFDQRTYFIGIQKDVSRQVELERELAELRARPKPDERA
The experiment in a line: absorbance of purified holoprotein; SDS-PAGE fluorescence; ESI-MS. It counts as binding. To be noted: dissociable, noncovalent FMN.

Substrate in data set [4]: NC(=O)N/N=C/c1ccc([N+](=O)[O-])o1
The experiment in a line: steady-state kinetics. It is filed as biochemical, Bacillus tequilensis. The source says:
steady-state kinetics on BtNR

The mark [5] stands for this setting: BtNR-F3, covalent FMN 100% (cofactor).

Changes are numbered by the printed parent chain. Names may count otherwise.

As to `Cc1cc2nc3c(=O)[nH]c(=O)nc-3n(C[C@H](O)[C@H](O)[C@H](O)COP(=O)(O)O)c2cc1C` [FMN], the “X-ray crystal structure 2.0 Å; MS” value in data set [1] is “the introduced phosphoester bond between OG1 of Thr57 and the phosphate of FMN”. Moreover, in data set [2], the “SDS-PAGE and MS” value is “SDS-PAGE and MS analyses revealed that both proteins were fully covalently flavinylated”. For the same molecule, in data set [3], the “absorbance of purified holoprotein; SDS-PAGE fluorescence; ESI-MS” value was “the wild-type protein did not yield in-gel fluorescence as it contains a dissociable FMN”.

B1: BtNR (Bacillus tequilensis) (protein)
chain: MADIKKQILDAYNFRHATKEFDPNKKVSDSDFEFILETGRLSPSSLGLEPWKFVVVQNPEFREKLREYTWGAQKQLPTASHFVLILARTAKDIKYNADYIKRHLKEVKQMPQDVSEGYISKTEEFQKNDLHLLESDRTLFDWASKQTYIALGNMMTAAAQIGVDSCPIEGFQYDHIHRILEEEGLLENGSFDISVMAAFGYRVRDPRPKTRSAVEDVVKWV
notes: recombinant, coexpressed with ApbE, purified
As for B1, in data set [4] (dissociable FMN), the Km (as a rule, the concentration of substrate that gives half-maximal velocity) is 64 ± 11.5 µM; the kcat (commonly the number of substrate molecules converted per active site and unit of time at saturation) was 32 ± 2.3 s⁻¹; the kcat/Km (as a rule, the second-order rate constant that governs catalysis at low substrate concentration) worked out at 500000 M⁻¹ s⁻¹.

B2: BtNR (Bacillus tequilensis; A11D/A17T/F14S/H16A/N13L/R15G/Y12G) (protein)
chain: B1 chain with A11D, Y12G, N13L, F14S, R15G, H16A, A17T
notes: as for B1
Consider B2, for which, in data set [4] (setting [5]), the Michaelis-Menten constant (Km) was 42 ± 6.6 µM, the kcat was 4.5 ± 0.2 s⁻¹ and the kcat/Km turned out to be 110000 M⁻¹ s⁻¹.
